Here are results for one molecule from US20180155712, “COMPOSITIONS AND METHODS FOR IDENTIFYING POLYNUCLEOTIDES OF INTEREST” (The Regents of the University of California, published 2018).

This series addresses T7 RNA polymerase (Bacteriophage T7, UniProt P00573 P00573:1-883). Description: functional promoter recovered as cDNA by in vitro transcription and deep sequencing; relative strength not given. The protocol: Transcription with T7 RNA polymerase, phenol/chloroform/iso-amyl alcohol extraction, ethanol precipitation, and reverse transcription were performed as described for Examples 1 and 2, above. PCR was done of the resulting cDNA with primers that added appropriate indexed sequences for Illumina deep sequencing, as described above and herein. PCR was also done directly on the library plasmid, again adding the appropriate sequences for Illumina deep sequencing, but with a different index. The appropriately sized PCR products from the cDNA and from the plasmid library were gel purified. An equal mass amount of the two products were mixed and submitted for Illumina MiSeq deep sequencing. Approximately 5 million sequences were generated for each of the cDNA and plasmid library after separation based on the primer indices. For both cDNA and library PCR products, non-promoter sequences were trimmed, promoter sequences were separated based on the number of mutations present in each sequence, and the number of times any given sequence was present was determined. […] See, SEQ ID NOs: 10-73473 listed in the text-formatted computer readable sequence listing filed herewith, and incorporated herein by reference. […]

Chain of T7 RNA polymerase (P00573 whole entry, one chain of several): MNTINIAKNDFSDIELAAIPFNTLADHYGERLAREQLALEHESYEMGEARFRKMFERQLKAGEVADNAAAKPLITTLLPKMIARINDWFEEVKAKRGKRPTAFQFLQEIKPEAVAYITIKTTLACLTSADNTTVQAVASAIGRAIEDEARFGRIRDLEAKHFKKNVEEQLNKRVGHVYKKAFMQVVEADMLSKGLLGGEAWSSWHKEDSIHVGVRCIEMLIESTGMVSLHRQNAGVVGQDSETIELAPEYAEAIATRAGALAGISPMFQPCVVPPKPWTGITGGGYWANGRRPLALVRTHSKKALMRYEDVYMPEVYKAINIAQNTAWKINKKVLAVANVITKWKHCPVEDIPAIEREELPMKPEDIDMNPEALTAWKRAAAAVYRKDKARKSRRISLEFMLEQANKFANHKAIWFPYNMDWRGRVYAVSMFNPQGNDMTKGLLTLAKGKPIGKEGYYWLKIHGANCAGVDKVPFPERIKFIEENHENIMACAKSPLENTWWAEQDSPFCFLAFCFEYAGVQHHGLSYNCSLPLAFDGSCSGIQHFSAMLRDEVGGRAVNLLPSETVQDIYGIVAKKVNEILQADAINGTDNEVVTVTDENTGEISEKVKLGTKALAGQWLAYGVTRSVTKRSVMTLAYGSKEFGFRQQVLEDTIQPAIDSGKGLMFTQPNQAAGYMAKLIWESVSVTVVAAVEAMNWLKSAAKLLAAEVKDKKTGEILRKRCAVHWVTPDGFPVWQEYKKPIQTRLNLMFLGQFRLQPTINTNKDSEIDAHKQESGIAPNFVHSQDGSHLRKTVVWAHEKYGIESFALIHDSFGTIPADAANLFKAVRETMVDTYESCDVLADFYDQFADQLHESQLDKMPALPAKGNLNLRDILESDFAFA

B1: mutant T7 promoter SEQ ID NO: 10 (dsDNA)
DNA 1: TAATACGACTCGCTATCG
DNA 2: CGATAGCGAGTCGTATTA
Regarding B1, the binding result is given as “binds”.
